Laboratory results reported in PMC6366628.

What was measured:
RPA complex = RPA complex (Homo sapiens, UniProt P27694;P15927;P35244 1-616;1-270;1-121); assay: EMSA
RAD52 = target: T1, RAD52 (Homo sapiens, UniProt P43351 1-418); assay: EMSA
T1 sequence: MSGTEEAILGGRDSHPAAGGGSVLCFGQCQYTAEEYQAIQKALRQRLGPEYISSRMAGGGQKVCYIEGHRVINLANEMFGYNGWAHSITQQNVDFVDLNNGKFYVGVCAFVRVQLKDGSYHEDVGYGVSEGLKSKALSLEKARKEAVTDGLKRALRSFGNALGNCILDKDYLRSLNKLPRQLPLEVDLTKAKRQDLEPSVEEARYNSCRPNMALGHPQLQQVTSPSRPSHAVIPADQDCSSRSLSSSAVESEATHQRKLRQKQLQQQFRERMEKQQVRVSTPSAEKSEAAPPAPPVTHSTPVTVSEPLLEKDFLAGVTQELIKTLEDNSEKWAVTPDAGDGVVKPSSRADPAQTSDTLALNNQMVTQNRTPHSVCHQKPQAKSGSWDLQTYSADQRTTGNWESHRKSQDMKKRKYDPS

Sequence of RPA complex (P27694 whole entry, chain 1 of 3): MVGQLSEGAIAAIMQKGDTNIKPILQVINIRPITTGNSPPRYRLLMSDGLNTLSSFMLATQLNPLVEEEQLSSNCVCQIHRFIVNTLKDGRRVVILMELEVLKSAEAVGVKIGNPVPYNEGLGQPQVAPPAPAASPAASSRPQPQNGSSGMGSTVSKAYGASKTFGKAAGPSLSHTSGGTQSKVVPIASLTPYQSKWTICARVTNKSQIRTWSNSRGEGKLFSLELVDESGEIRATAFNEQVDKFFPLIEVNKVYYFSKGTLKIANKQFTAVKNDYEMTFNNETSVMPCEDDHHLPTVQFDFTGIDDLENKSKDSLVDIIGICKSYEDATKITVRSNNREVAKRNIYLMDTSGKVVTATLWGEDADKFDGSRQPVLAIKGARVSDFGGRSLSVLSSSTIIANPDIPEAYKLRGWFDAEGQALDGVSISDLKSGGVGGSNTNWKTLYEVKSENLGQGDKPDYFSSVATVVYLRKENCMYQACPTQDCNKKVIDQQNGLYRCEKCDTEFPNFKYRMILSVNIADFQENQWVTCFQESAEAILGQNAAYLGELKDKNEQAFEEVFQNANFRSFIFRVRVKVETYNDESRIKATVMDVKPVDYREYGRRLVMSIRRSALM
Sequence of RPA complex (P15927 whole entry, chain 2 of 3): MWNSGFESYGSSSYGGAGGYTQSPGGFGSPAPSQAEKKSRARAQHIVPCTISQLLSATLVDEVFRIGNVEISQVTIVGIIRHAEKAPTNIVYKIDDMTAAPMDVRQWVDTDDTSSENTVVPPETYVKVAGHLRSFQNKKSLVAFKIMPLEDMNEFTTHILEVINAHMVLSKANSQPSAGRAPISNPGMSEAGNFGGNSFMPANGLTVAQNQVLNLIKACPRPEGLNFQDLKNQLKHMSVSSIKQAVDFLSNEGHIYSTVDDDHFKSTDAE
Sequence of RPA complex (P35244 whole entry, chain 3 of 3): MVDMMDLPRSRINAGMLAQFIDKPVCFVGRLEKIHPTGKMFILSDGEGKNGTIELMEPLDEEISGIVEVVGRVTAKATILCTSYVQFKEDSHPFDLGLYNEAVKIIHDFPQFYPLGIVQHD

B1: ssTelo (Telo G-strand) (ssDNA)
DNA: TTAGGGTTAGGGTTAGGGTTAGGGTTAGGGTTAGGGTTAGGGTTAGGGTTAGGGTTAGGG
binding result (RPA complex): binds
binding result (RAD52): binds
